Patent US20160200799A1
Positions count from the first letter of the chain named.

B1: Group 2 representative clone F082-220, Fab-PP-type antibody (Fab, V domains shown)
VH: QVQLVQSGAEVKKPGSSVKVSCKASGGIFRSNAVSWVRQAPGQGLEWMGGIIAIFGTPKYAQKFQGRVTITADESTSTVYMELSGLRYEDTAVYYCARGPNYYESYFDYWGQGTLVTVSS
VL: DIVMTQSPPSLSASVGDRVTITCRASQGISNYLAWYQQKPGKAPKLLIFGASTLHSGVSSRFSGSGSGPDFTLTISSLQPEDAATYYCQKYHSAPLTFGGGTKVEMK
B2: Group 36 representative clone F082-243, Fab-PP-type antibody (Fab, V domains shown)
VH: QVQLQQSGAEVKKPGSSVKVSCKASGGIFRKNAISWVRQAPGQGLEWMGGIIAIFGTANYAQKFQGRVTITADDSTNTVYMELTSLRYEDTAVYYCARGPNYYENYFDFWGQGTLVTVSS
VL: EIVLTQSPSSLSASLRDTVTITCRTSQAITNYLAWYQQRPGKAPKLLIYAASVLQSGVPSRFSGSGSGTDFTLTISSLQPEDFATYYCQKYDSAPYTFGQGTKLEIK
B3: Group 42 representative clone F083-249, Fab-cp3-type antibody (Fab, V domains shown)
VH: QVQLVQSGSEVKKPGSSVKVSCKASGVTFSSYAISWVRQAPGQGLEWMGGISPMFGTTRYAQKFQGRVTITADESTRTGFMELSSLRSGDTAVYYCARSPTYYPGALDMWGQGTTVTVSS
VL: DVVMTQSPSLLSASVGDRVTITCRASQAIANFVSWFQQKPGEAPKSLIHAASTLQGGVPPRFSGSGYGAVFTLTITNLQPEDFATYFCQQYNSLPFTFGPGTDVEVR
B4: Group 55 representative clone F083-305, Fab-cp3-type antibody (Fab, V domains shown)
VH: EVQLVESGAEVKKPGSSVKVSCKASGSIFSNYAISWVRQAPGQGLEWMGGIVPMFGTTRFAQKFQGRVTITADESRSTAYMELNNLISEDTAVYYCARAPLIYNWYFDLWGRGTLVTVSS
VL: EIVLTQSPSFVSASVGDRVSITCRASQGISSWLAWYQQKPGKAPRLLIYGASNLQSGVPSRFSGSGSGTDYTLTINSLQPEDFATYYCQQARTFPVTFGQGTKLEIK
B5: Group 56 representative clone F083-318, Fab-cp3-type antibody (Fab, V domains shown)
VH: B4 VH with E6Q, K23Q, S35N, M54I, V68L, S75P, F107Y
VL: EIVLTQSPSSLSASVGDRVTITCRASQGISNYLAWYQQKPGKVPKLLIYAASTLQSGVPSRFSGSGSGTDFTLTISSLQPEDVATYYCQKYNSAPHTFGPGTKVDIK
B6: Group 57 representative clone F083-103, Fab-cp3-type antibody (Fab, V domains shown)
VH: QVQLQQSGADVKKAGSSVKVSCKASGRTFGNYAISWVRQAPGQGLEWMGGITPIFGAANYAQKFQGRVTISADLSTRMVYMDLSSLRSDDTAFYYCAGHPTYHYGSAMDYWGQGTLVTVSS
VL: QSVLTQPPSVSAAPGQKVTITCSGSSSNIGNNYVSWYQQLPGTAPKLLISEGSNRPSGIPDRFSGSKSGTSATLGITGLQTGDEATYYCATWDDSLSVVLFGGGTRLTVLS
B7: Group 58 representative clone F083-307, Fab-cp3-type antibody (Fab, V domains shown)
VH: QVQLQQSGADVKKPGSSVKVSCKASGGTFGNYAISWVRQAPGQGLEWMGGITPIFGPANYAQRFQGRVTISADISTRTAYMELSSLRSEDTAIYYCARHPTYYFGSAMEYWGQGTLVTVSS
VL: SYELTQPPSVSVAPGQTATITCGGDRIGTGPVHWYQQRPGRAPVLIIYGSTHRPSGIPERFSGSKSVNTATLSISGVGVGDEADYYCQVWDTSTAQPIVFGGGTKLTVLS
B8: Group 80 representative clone F083-373, Fab-cp3-type antibody (Fab, V domains shown)
VH: B6 VH with Q5V, A14P, K19R, R77T, H103Y, A107P
VL: EIVLTQSPSSLSASVGDRVTITCRASQSIATYLNWYQQKPGKAPNLLIYAASNLQSGVPSRFSGSGSGTDFTLTISSLQPEDFATYVCLQSYSATLTFGGGTKVEIK
B9: Group 59 representative clone F083-351, Fab-cp3-type antibody (Fab, V domains shown)
VH: B6 VH with Q5V, T101M
VL: QSVLTQPPSASGTPGQRVSISCFGSRSNVGSSSVNWYQQLPGRAPKLLIQRNDQRPSGVPDRFSGSKSGTSASLAISGLQSDDESTYYCAAWDDSVKSVVFGGGTQLTVLG
B10: Group 51 representative clone F083-302, Fab-cp3-type antibody (Fab, V domains shown)
VH: QVQLVQSGAEVKKPGSSVKVSCEASGATFSSNAFSWVRQAPGQGPEWMGGIITMFRKAEYAQKFQGRVTITAGELGSTAYMEVRSLTFEDTAVYYCARHSGYHLIGYFDSWGQGTLVTVSS
VL: QSVLTQPPSVSAAPGQKVTISCSGTTSNIGNNYVSWYQQLPGAAPKLLIYDNNKRPSGIPDRFSGSKSDTSATLGITGLQTGDEADYYCGTWVSSLSVWVFGGGTKLTVLG
B11: Group 62 representative clone F083-349, Fab-cp3-type antibody (Fab, V domains shown)
VH: QVQLVQSGAEVRKPGSSVKVSCKASGVIFIKFAISWVRQAPGQGLEWMGGIIPMFGTTNYAQKFQGRVTITADGSTNTVYMELSSLTSEDTAVYYCAKEEGYYYGSGPLDSWGQGTLVTVSS
VL: DIVMTQSPDFLSVSLGERVTINCKSSQTVLNRSNNKNYLAWYQKKPGQPPRLLLYWSSTRESGVPDRFSGSGSETDFALTITNLQAEDLAVYFCQQFYDMPVTFGGGTKLEIK
B12: Group 63 representative clone F083-336, Fab-cp3-type antibody (Fab, V domains shown)
VH: QVQLQQSGAEVKQPGSSVKVSCKASGGIFRSNAISWVRQAPGQGLEWMGGIVALFGTANYAQKFQGRVTITADESTSTVYMELSSLRSEDTARYYCARNSGYHISGFYLDYWGQGTLVTVSS
VL: B5 VL with K39R, A50T, Q55L, S65G, F71Y, K90E, N92K, A94V, H96L, D105E
B13: Group 38 representative clone F082-338, Fab-cp3-type antibody (Fab, V domains shown)
VH: QVQLQESGAEVKKPGSSVKVSCKASGGPFRSHAISWVRQAAGQGLEWMGGITAVFGTANYAQKFQGRVTITADESTNIVSMELSSLRSEDTAIYYCARSLGYHTQYNGMDVWGQGTTVTVSS
VL: DVVMTQSPSSVSASVGDRVTITCRASQGISSWLAWYQQKPGKAPKLLIYAASSLQSGVPSRFSGSGSGTDFTLTISSLQPEDFATYYCQQANSFPITFGQGTRLEIK
B14: Group 43 representative clone F081-007, Fab-cp3-type antibody (Fab, V domains shown)
VH: QVQLQQSGAEVKKPGSSVKVSCKASGGIFRKNAISWVRQAPGQGLEWMGGISAIFGTANYAQKFQGRVTITADESSNTVYMDLSRLRSEDTAIYYCASHPTYHFDKSGYRFDSWGQGTLVTVSS
VL: B10 VL with T25S, T26S, A43T, D69G, V93D, V98A, W99G
B15: Group 64 representative clone F083-301, Fab-cp3-type antibody (Fab, V domains shown)
VH: QVQLVQSGAEVKKPGSSVKVSCKASGGIFNSNAISWVRQAPGQGLEWMGGIIGIFGTANYAQKFQGRVTIAADQSTNTVFMELSSLTSEDTAVYFCARSRGYSFGYGTDYFDYWGQGTLVTVSS
VL: DIVMTQSPSTLSASVGDRVTITCRASQSISSWLAWYQQAPGKAPKLLIYEASKLQSGVPSRFSATGSGTEFTLTIASLQPEDFAIYYCQHYEAYPFSFGPGTKLDVK

The binders below were run against Influenza virus A/Panama/2007/1999 (H3N2) (Influenza A virus A/Panama/2007/1999 (H3N2)) (assay: cell-based or functional assay).

Binder	Neutralizing activity (%) at 100 µg/ml	Neutralizing activity (%) at 250 µg/ml
B1	3.4%	34.2%
B2	7.5%	-2.7%

The binders below were run against Influenza virus A/Indonesia/5/2005/PR8-IBCDC-RG2 (H5N1) (Influenza A virus A/Indonesia/5/2005/PR8-IBCDC-RG2 (H5N1)) (assay: cell-based or functional assay).

Binder	Neutralizing activity (%) at 100 µg/ml	Neutralizing activity (%) at 250 µg/ml
B1	90.6%	97.1%
B2	50.6%	52.9%

These binders were tested against Influenza virus A/Brisbane/59/2007 (H1N1) (Influenza A virus A/Brisbane/59/2007 (H1N1)) (assay: cell-based or functional assay).

Binder	HI activity	Neutralizing activity (%) at 100 µg/ml	Neutralizing activity (%) at 250 µg/ml
B1	> 160 µg/mL	100%	100%
B2	> 160 µg/mL	84.2%	94.1%

Each binder was assayed against Influenza virus A/Suita/1/2009pdm (H1N1 2009 pandemic) (Influenza A virus A/Suita/1/2009pdm (H1N1pdm)) (assay: cell-based or functional assay).

Binder	Neutralizing activity (%) at 100 µg/ml	Neutralizing activity (%) at 250 µg/ml
B1	85.3%	97.7%
B2	97.7%	85.9%

What follows are binders tested against Influenza virus A/California/7/2009pdm (H1N1pdm) (Influenza A virus A/California/7/2009pdm (H1N1pdm)) (assay: cell-based or functional assay).

Binder	HI activity
B1	> 160 µg/mL
B2	> 160 µg/mL

These binders were tested against Influenza virus A/Panama/2007/1999 (H3N2) (Influenza A virus A/Panama/2007/1999 (H3N2)) (assay: ELISA on coated viral particles).

Binder	Binding activity (absorbance at 492 nm)
B3	1.15
B4	0.15
B5	0.16
B6	0.16
B7	0.19
B8	0.13
B9	0.21
B10	0.23
B11	0.15
B12	0.15
B13	0.13
B14	0.14
B15	0.16

The binders below were run against Influenza virus A/Brisbane/59/2007 (H1N1) (Influenza A virus A/Brisbane/59/2007 (H1N1)) (assay: ELISA on coated viral particles).

Binder	Binding activity (absorbance at 492 nm)
B3	3.02
B4	2.88
B5	2.85
B6	2.39
B7	3.04
B8	1.31
B9	3.09
B10	2
B11	2.93
B12	1.89
B13	2.93
B14	2.72
B15	1.44

What follows are binders tested against Influenza virus A/California/7/2009pdm (H1N1pdm) (Influenza A virus A/California/7/2009pdm (H1N1pdm)) (assay: ELISA on coated viral particles).

Binder	Binding activity (absorbance at 492 nm)
B3	2.38
B4	1.29
B5	0.71
B6	1.82
B7	2.37
B8	0.17
B9	2.62
B10	1.55
B11	2.79
B12	1.56
B13	2.82
B14	2.33
B15	0.46

The binders below were run against Influenza virus A/New Caledonia/20/1999 (H1N1) (Influenza A virus A/New Caledonia/20/1999 (H1N1)) (assay: ELISA on coated viral particles).

Binder	Binding activity (absorbance at 492 nm)
B3	3.13
B4	3.07
B5	3.01
B6	2.43
B7	3.3
B8	1.39
B9	3.21
B10	1.92
B11	3.17
B12	1.61
B13	3.01
B14	2.84
B15	1.34
